Data taken from patent US20260217847A1 (NANJING REGENECORE BIOTECH, published 2026).

How the values were obtained:
TfR1 peptide D1-helix1 = target: T1, TfR1 peptide D1-helix1 (human); experiment: peptide ELISA on streptavidin plate, 2 µg/mL 2H7-hFc
T1 construct: Synthetic peptide, captured on a streptavidin-coated plate; also called peptide No. 1
T1 peptide: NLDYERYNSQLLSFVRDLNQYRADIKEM
Protocol: (§1) The peptide-antibody binding was identified using a standard enzyme-linked immunosorbent assay (ELISA). The steps were as follows: [0244] (1) The wells of an ELISA plate were coated with 100 μL of 2 μg/mL SA (streptavidin) protein at 4° C. overnight. […] (2) The wells of the ELISA plate were washed with PBST buffer. After adding 200 μL of 2% BSA, the plate was blocked at 37° C. for 1 h. […] (3) The peptide protein was diluted to 2 μg/mL, and a negative control and a positive control (AVI-tagged TfR1 protein) were included. Each experiment contained duplicate controls. […] (4) The wells of the ELISA plate were washed multiple times with PBST buffer. Then, 100 μL of the diluted peptide protein solution from step (3) was added into wells in duplicate, and along with the negative control wells, incubated at 37° C. for 1 h. [0248] (5) The wells of the ELISA plate were washed multiple times with PBST buffer. […] [0249] (6) The wells of the ELISA plate were washed multiple times with PBST buffer. Then, 100 μL of 2× anti-hFc HRP secondary antibody was added, and the plate was incubated at 37° C. for 1 h. [0250] (7) The wells of the ELISA plate were washed multiple times with PBST buffer. After adding 100 μL of TMB chromogenic solution, the reaction was carried out in the dark at room temperature for 30 min. [0251] (8) 100 μL of stop solution (1 mol/L HCl) was added to terminate the reaction. OD450 was measured using a microplate reader, and the readings were recorded.

TfR1 peptide D1-helix5 [1] = target: T2, TfR1 peptide D1-helix5 (human); experiment: as above
T2 construct: Synthetic peptide, captured on a streptavidin-coated plate; also called peptide No. 17
T2 peptide: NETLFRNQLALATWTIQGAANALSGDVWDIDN
Protocol: as §1

TfR1 peptide D2-loop3-K = target: T3, TfR1 peptide D2-loop3-K (human); experiment: as above
T3 construct: Synthetic peptide, captured on a streptavidin-coated plate; also called peptide No. 14
T3 peptide: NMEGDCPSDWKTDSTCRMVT
Protocol: as §1

TfR1 peptide D2-loop2-K = target: T4, TfR1 peptide D2-loop2-K (human); experiment: as above
T4 construct: Synthetic peptide, captured on a streptavidin-coated plate; also called peptide No. 21
T4 peptide: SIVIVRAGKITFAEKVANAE
Protocol: as §1

TfR1 peptide D3-helix2 = target: T5, TfR1 peptide D3-helix2 (human); experiment: as above
T5 construct: Synthetic peptide, captured on a streptavidin-coated plate; also called peptide No. 6
T5 peptide: FTSTIKLLNENSYV
Protocol: as §1

[2] = target: T6, TfR1 peptide D3-helix2-helix3 (human); experiment: as above
T6 construct: Synthetic peptide, captured on a streptavidin-coated plate; also called peptide No. 9
T6 peptide: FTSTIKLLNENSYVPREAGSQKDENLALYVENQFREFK
Protocol: as §1

TfR1 peptide D3-helix1 = target: T7, TfR1 peptide D3-helix1 (human); experiment: as above
T7 construct: Synthetic peptide, captured on a streptavidin-coated plate; also called peptide No. 5
T7 peptide: RLYWDDLKRKLSEKLDSTD
Protocol: as §1

TfR1 peptide D2-loop1-K = target: T8, TfR1 peptide D2-loop1-K (human); experiment: as above
T8 construct: Synthetic peptide, captured on a streptavidin-coated plate; also called peptide No. 13
T8 peptide: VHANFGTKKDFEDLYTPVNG
Protocol: as §1

TfR1 peptide D2-loop1 = target: T9, TfR1 peptide D2-loop1 (human); experiment: as above
T9 construct: Synthetic peptide, captured on a streptavidin-coated plate; also called peptide No. 12
T9 peptide: GTKKDFEDLY
Protocol: as §1

TfR1 peptide D3-loop1 = target: T10, TfR1 peptide D3-loop1 (human); experiment: as above
T10 construct: Synthetic peptide, captured on a streptavidin-coated plate; also called peptide No. 11
T10 peptide: LSKVWRDQHFV
Protocol: as §1

[3] = target: T11, TfR1 peptide D3-helix1-helix2 (human); experiment: as above
T11 construct: Synthetic peptide, captured on a streptavidin-coated plate; also called peptide No. 8
T11 peptide: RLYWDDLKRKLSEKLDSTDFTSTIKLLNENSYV
Protocol: as §1

TfR1 peptide D3-helix3 = target: T12, TfR1 peptide D3-helix3 (human); experiment: as above
T12 construct: Synthetic peptide, captured on a streptavidin-coated plate; also called peptide No. 7
T12 peptide: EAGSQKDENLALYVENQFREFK
Protocol: as §1

[4] = target: T13, TfR1 peptide D3-helix3-loop1 (human); experiment: as above
T13 construct: Synthetic peptide, captured on a streptavidin-coated plate; also called peptide No. 10
T13 peptide: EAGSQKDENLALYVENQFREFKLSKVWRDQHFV
Protocol: as §1

[5] = target: T14, TfR1 peptide D1-helix2-helix3 (human); experiment: as above
T14 construct: Synthetic peptide, captured on a streptavidin-coated plate; also called peptide No. 4
T14 peptide: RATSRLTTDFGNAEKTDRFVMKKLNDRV
Protocol: as §1

TfR1 peptide D1-helix5 [6] = target: T2, TfR1 peptide D1-helix5; experiment: peptide ELISA on streptavidin plate, 2 µg/mL 2H7-hFc, anti-hFc HRP
Protocol: as §1

TfR1 peptide D1-helix3 = target: T15, TfR1 peptide D1-helix3 (human); experiment: as above
T15 construct: Synthetic peptide, captured on a streptavidin-coated plate; also called peptide No. 16
T15 peptide: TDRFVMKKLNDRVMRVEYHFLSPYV
Protocol: as §1

TfR1 peptide D1-helix4 = target: T16, TfR1 peptide D1-helix4 (human); experiment: as above
T16 construct: Synthetic peptide, captured on a streptavidin-coated plate; also called peptide No. 3
T16 peptide: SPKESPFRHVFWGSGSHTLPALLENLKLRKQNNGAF
Protocol: as §1

- binding result (TfR1 peptide D1-helix1): no binding (tested: P/N 1.2, limit 2)
- binding result (TfR1 peptide D1-helix5 [1]): no binding (tested: P/N 1.2, limit 2)
- binding result (TfR1 peptide D2-loop3-K): no binding (tested: P/N 1.5, limit 2)
- binding result (TfR1 peptide D2-loop2-K): no binding (tested: P/N 1.3, limit 2)
- binding result (TfR1 peptide D3-helix2): no binding (tested: P/N 1.3, limit 2)
- binding result [2]: no binding (tested: P/N 1.2, limit 2)
- binding result (TfR1 peptide D3-helix1): no binding (tested: P/N 1.1, limit 2)
- binding result (TfR1 peptide D2-loop1-K): no binding (tested: P/N 1.2, limit 2)
- binding result (TfR1 peptide D2-loop1): no binding (tested: P/N 1.4, limit 2)
- binding result (TfR1 peptide D3-loop1): no binding (tested: P/N 1.4, limit 2)
- binding result [3]: no binding (tested: P/N 1.1, limit 2)
- binding result (TfR1 peptide D3-helix3): no binding (tested: P/N 1.1, limit 2)
- binding result [4]: no binding (tested: P/N 1.7, limit 2)
- binding result [5]: no binding (tested: P/N 1.4, limit 2)
- OD450 (TfR1 peptide D1-helix5 [6]): 0.206
- OD450 (TfR1 peptide D1-helix3): 0.974
- P/N (TfR1 peptide D1-helix3): 5
- OD450 (TfR1 peptide D1-helix4): 1.49
- P/N (TfR1 peptide D1-helix4): 9.5
B1: anti-humanized TfR1 single-domain antibody-Fc fusion antibody 2H7-hFC1 (Fc fusion)
chain (part 1 of 2): ESGGGLVQPGESLRLSCVASGSIWSIYTMGWYRQAPGKQRDFVASITGDSTRTLESVKDRFIISRDNTKNTLYLQMNSLKPEDTAVYYCQAITSLGEYWGQGTQVTVSS
notes: Expressed in 293F cells, Protein A purified; labelled with pHrodo iFL Green in the internalization assays; also called VHH-hFc; not shown: human IgG1 Fc: hinge, CH2 and CH3 regions, from vector RJK-V4-hFC1; limits and junction (multiple cloning site) not stat
